Molecular target: B7-1 (mouse (endogenous in mouse podocytes)) (UniProt Q00609)
UniProt Q00609, sequence (Q00609 38-306): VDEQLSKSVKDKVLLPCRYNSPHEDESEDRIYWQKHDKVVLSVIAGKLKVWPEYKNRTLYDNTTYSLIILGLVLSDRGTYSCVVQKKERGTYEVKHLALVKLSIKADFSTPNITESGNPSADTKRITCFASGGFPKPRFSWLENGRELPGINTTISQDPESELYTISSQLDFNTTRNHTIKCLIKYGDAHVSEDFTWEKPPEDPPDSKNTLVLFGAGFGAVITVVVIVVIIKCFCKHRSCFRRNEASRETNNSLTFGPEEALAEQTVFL

late apoptosis rate of LPS-treated podocytes cocultured with γδT cells (Group D), Annexin-PI, 48 hours: 10.2%
late apoptosis rate of LPS-treated podocytes cocultured with γδT cells and treated with the CD28/B7-1 blocker CTLA4-Ig, 100 μg/ml (Group E), Annexin-PI, 48 hours: 6.43%
phosphor-SRC immunofluorescence intensity in LPS-treated podocytes cocultured with γδT cells (Group D): 142
phosphor-SRC immunofluorescence intensity in LPS-treated podocytes cocultured with γδT cells and treated with the CD28/B7-1 blocker CTLA4-Ig, 100 μg/ml (Group E): 24
Substance: CD28 (from UniProt P31041 20-218) (receptor)
